Laboratory results as given in FireProtDB (doi:10.1021/acs.biochem.7b00571).

B1: Salicylic acid-binding protein 2, Q6RYA0 (parent)
chain: MKEGKHFVLVHGACHGGWSWYKLKPLLEAAGHKVTALDLAASGTDLRKIEELRTLYDYTLPLMELMESLSADEKVILVGHSLGGMNLGLAMEKYPQKIYAAVFLAAFMPDSVHNSSFVLEQYNERTPAENWLDTQFLPYGSPEEPLTSMFFGPKFLAHKLYQLCSPEDLALASSLVRPSSLFMEDLSKAKYFTDERFGSVKRVYIVCTEDKGIPEEFQRWQIDNIGVTEAIEIKGADHMAMLCEPQKLCASLLEIAHKYN

Variants of: B1
Conditions: Nicotiana tabacum; pH 7.2; 4 °C; Urea; Fluorescence; BES; reversible: yes; structure 1Y7I; whole UniProt chain shown

Variant | denaturant midpoint (higher = more stable)
G17A | 2.1 M
S165P | 2.5 M
L65F | 3.8 M
Q162H | 2.4 M
S251V | 2.2 M
G212C | 3.5 M
C243S | 2.1 M
K247E | 1.1 M
S141P | 2.2 M
S141N | 1.8 M
N114L | 2 M
N114G | 2.5 M
A172V | 2.3 M
I225T | 1.5 M
C249A | 2.1 M
L46P | 2.4 M
S111G | 1.7 M
S111P | 1.7 M
A250K | 2 M
S115P | 1.9 M

Variant | denaturant midpoint (higher = more stable)
S115A | 2.4 M
E144Y | 2.4 M
E144M | 2 M
Q221M | 2.7 M
A230V | 2.6 M
G226P | 1.6 M
L60R | 2.7 M
T228S | 1.9 M
S70P | 2.4 M
F197Y | 2.2 M
I231R | 1.9 M
A71P | 1.9 M
K188R | 2.5 M
E244K | 3 M
C164S | 0.9 M
V227P | 1.8 M
Y94F | 2.2 M
A189S | 2.5 M
A189N | 2.6 M
E215P | 3.2 M
